Article PMC4493562, “Mechanistic studies of a novel C-S lyase in ergothioneine biosynthesis: the involvement of a sulfenic acid intermediate” (Scientific Reports, 2015)

How the values were obtained:
purified protein [1] = substrate: C[N+](C)(C)[C@@H](Cc1cnc(SC[C@H](N)C(=O)O)[nH]1)C(=O)[O-]; test: purified protein; assay type: biochemical, Mycolicibacterium smegmatis; settings: 50 mM KPi pH 8.0, 1.0 mM DTT, 10 nM EgtE, 0.13 mM NADH, LDH
purified protein [2] = substrate: C[N+](C)(C)[C@@H](Cc1cnc([S+]([O-])C[C@H](N)C(=O)O)[nH]1)C(=O)[O-]; test: purified protein; assay type: biochemical, Mycolicibacterium smegmatis; settings: 50 mM KPi pH 8.0, 1.0 mM DTT, 10 nM EgtE, 0.13 mM NADH, LDH

B1: EgtE (Mycolicibacterium smegmatis MC2 155) (protein)
chain: MMLAQQWRDARPKVAGLHLDSGACSRQSFAVIDATTAHARHEAEVGGYVAAEAATPALDAGRAAVASLIGFAASDVVYTSGSNHAIDLLLSSWPGKRTLACLPGEYGPNLSAMAANGFQVRALPVDDDGRVLVDEASHELSAHPVALVHLTALASHRGIAQPAAELVEACHNAGIPVVIDAAQALGHLDCNVGADAVYSSSRKWLAGPRGVGVLAVRPELAERLQPRIPPSDWPIPMSVLEKLELGEHNAAARVGFSVAVGEHLAAGPTAVRERLAEVGRLSRQVLAEVDGWRVVEPVDQPTAITTLESTDGADPASVRSWLIAERGIVTTACELARAPFEMRTPVLRISPHVDVTVDELEQFAAALREAP
notes: cloning details in supplement
- Km (purified protein [1]): 1960 ± 250 µM
- kcat (purified protein [1]): 7.93 ± 0.05 s⁻¹
- Km (purified protein [2]): 121.2 ± 6.6 µM
- kcat (purified protein [2]): 25.27 ± 0.45 s⁻¹
